# Test results as given in a protein production outcome set (Wang et al. 2014).
# Assay: label from the status in PepcDB records
# 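Further: failed if final PepcDB status was selected cloned or expressed and not failed if soluble or beyond.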
row,Sequence,protein production
1,MRLRLLSLPFILSLCAPLLPLNTLAAERIVTIGGDVTEIAYALGAGDEIVARDSTSQQPQAAQKLPDVGYMRTLNAEGILAMKPTMLLVSELAQPSLVLTQIASSGVNVVTVPGQTTPESVAMKINAVATALHQTEKGQKLIEDYQQRLAAVNKTPLPVKVLFVMSHGGLTPMAAGQNTAADAMIRAAGGSNAMQGFSRYRPLSQEGVIASAPDLLLITTDGVKALGSSENIWKLPGMALTPAGKHKRLLVVDDMALLGFGLETPQVLAQLREKMEQMQ,failed
2,MRLSRGVFLLLLLLALASPLMIVGCGGPSFLPAASLRDPSVDMAWPPAPNPARIRFLREISGPEQVKAEPGAIARFLEFVTGEQFKHVPFVTPYGVVSDGGTLLFVSDSSSGVVHRIDLARQKVSYIVRAGDEFLSSPVGLALSPSGDLYVSDSVNAKVYVFSRDGEFLRVLADGQVDFKRPAGLAVNSKGVLFVVDVLAHKLKVFNVSGRFLGDFPPDDIGGKLNLPSHVAVDKDDKVYVTDALNFTVKVYDSARRYLRSIGEIGDAPGSFARPRGVAVDSDLNVYVIDAAFDNFQIFNQEGQLLLFVGKPGKKSGEFYMPSGIHIDRNDRIFISDSYNRRVQVFEYLKEENR,failed
3,MRMLKTGLLNFISVLVKVITGLFLNKIMALYVGPAGYALVSQFQNGINFITTFASGAINTGVTKYTAEYANDKGKTSDLFKCITLLAITCCSFFSLTIIVFSEYFSLKLLGTINYSGVIKWFAATLFLFVANSILVSIINGLKEFKLYVLINIFGSLFSLLFSGILIYFFNLKGALIAFATNQSIVFFMTFYLIISKKMVSLKSFIGMPSDFYFIKKLIQYALMAIVSAFCVIYMQIIIRTYIANHFGWVQAGIWDGVWRISSLYLMLVTVPLGVYYLPRLAELHTKSLLLREIKQGYLFLLPIIIISAIIIYYLRYFIIELLFSKSFVSMGDIIGWQLLGDIFKIGSWLLSYIMLSKALTKTYIITEITTALLFLGGVHYLSPLYGLKGVTLAYCITYFCYWIMMIVVIISYFKGNFRNE,failed
4,MRMPDRTDVCVLLPTLNESETIGDVVGGFYDHGFEHVLVVDGDSTDGTRAIAREHGARVITQSGSGKGQAVREGVEQIDQPYVLMADGDGTYRPEDADKMLTPLFAGRAEHVIGDRFADMEAGAMTRLNAVGNRLINRLFATIHGRDLQDILSGYRAFTTQSFERSKLSADGFGIETELAVECVRRGVSTAVVPIRYEARPGGSETNLHPLKDGGRILLTLYRLARMNNPIFYFGSVAAVGTAGGVALGAFVGYRYLTAGVSHEVLALLAAFLVLLSVQLLMFGVLSDIIVSIHREQTRRLDDIADQLEEQNDE,failed
5,MRMRYQGRLSDWNDHKGFGFVTPHGGGDRAFVHISAFAQQTRRPRDGEIITYAIERDAHKRLNATQVRWADRTTAARTEQRRSGLPRKTLAAVSMLALAAATLMHVLPVIVPLWYAAASLVTLLIYAMDKSAAQRNQWRTPESSLHLLALIGGWPGALLAQEIHRHKCSKAAFQLTFWLTVALNVSALVLAVTETDLMATLPAVFD,failed
6,MRMTLRQLRIFNEVCDLRSYSRAAEEMSLTQPAVSLQVRQLEELIGQPLFEYVGKKLYMTEAAEALQLASRDIFGRLESLDMQLSDMQGSLQGQLKLAVESSCKYFIPHLFAAFKRQHPEVSLSLMVVNRAQIIRRLSDNRDDLVVMSAVPLDMGLEFLPFLNNPIVAVAPPDHPLSSRETLSLKDLEPWPLLTRETGSGTRRACEEYFKEKRVHFTQTLEVSSSEAQRECVVAGLGLAMLTRHAVCQELATGTLVELPVAELPLYRSWCVVQARDKRLSPVAHAFLAFIRTERAQISQLVERFDGRPQAV,failed
7,MRNDTMLNDTPFQDDDSRWQAVVTRNKAADSCFIYAVKTTSIYCAPSCASRQPRRENVVFFATADEAQAAGFRPCKRCRQGMLSRQEQQAQQIARACRMIEQSDRPPTLAVLAQAVGMSAFHFHRVFKTTTGLTPKQYASAYRHRQLREHLADNGEVTAAIVAAGYDASGRFYAEAGTHLGMTPTAFQNRGKGMTIHFAIGRCSLGDVLVAESEKGICAILLGDDPEPLLNTLQEMFAHAHLVGGDAAFEQRMSQVVGFVDDPSIGLTLPLDIRGTAFQQRIWQALRAIPVGETLSYREVAERIGSPAAVRAVAGACAANRLAVAIPCHRVVRHDGALSGYRWGVERKRALLEKEQVEKKQIVHQPEESPP,failed
8,MRNFFKKMVVLSVGCLTLPLWAQPHREGVQQKLQSLSVEQKIDLLCARYPGVPQEGLAKYDWWSECLHGVARAGKATVFPKPIGMGSTWDAELIHRIGIAIGDEARAKHHQDVREHGYSDRHYGLTFFSPTLNIARDPRWGRTTECFSEDPLLTSDMGVSFIKGMQGDDPYYLKTVATAKHFVANNEENRRLGGSAIVDEVSLREYYFPAFRDAVVRGYVKSIMGAYNALNGIPCCANSMLLTDVLRKEWGFEGVVISDGSAIDKLYTHHKYVPNLEEGAALALRAGCDMSLRDEYRPGLKKAYHKGLITEHDLNVAVARVLDLRARLGLDKGTDQGNPYKNTPYSVVECERHQQLALEAAEKSMILLKNEGVLPLKPDASKRKLNIALIGDAFKSVYYGDYSGMPEYNRTLLEAFTHDAGRLANLTWMGERSQEVLIPSHLLTQTADQAYDGILGFTARYYEGTKVGKEAALTRQDLTLDFKLAEDAALKQKEVRAASWTSTLKAPQSGRYMFYLEASGRGKLFINGKQMLSKYNGHRFKTSCEVVLKEGEEYKLKVDCEELNTQMPIRLTWTPPFKGTDDTPAKLAKRSDVAILFVRDDNSSEGRDRKNLNLSDAHIELIKEVCAANPKTILLLGGGSTLALKDIIEGPAALLNVWIAGQGEAQAISNILLGKTNPSGKTAVTFCADESELPALDDYDITHGRSYQYFKGKELFPFGFGLSYTNYQYGKPKMKHRKLQQGDKVEVSAEIRNTGKYAGEEVVQCYLSSPTWQKQGLKQKLVGYQRVSLKPGQAKTVKFCIQEEQLKRWNKDKDEWGLNGNQYNLSVVPCSNQQNAVSFTYR,failed
9,MRNKLLFLALPLLFGLQASAQHTQAFQDTTLTDEQRVEHLLSILTLDEKINLLSTDLGVPRLNIPRCGHYEGLHGLTLGGPAMWGGRQRTEDGKVVPTDCPTTIFPQSYGLGSTWDTDLVQKVAEQAAEEARYYMQTTGNKRHALVMRAPNADLARDPRWGRTEESFGEDAFLTAQLTIASVRGLQGNHPRYWKTASLMKHFLANSNEDGRDSTSSDFDTRLFHEYYAYPFYKGITEGGSRAFMAAYNSWNGIPMSIHPCLEEITRKQWGNNGIICTDGGALKLLIEAHKSFPSFAEGAAAVVKATTGQFLDAYVPYVKEALEKGLLTEVDIDKAIRGNIFVALKLGLLDGDNSRNPYLSIGKNSTETPPFMTAEARRLAREVTAKSVVLLKNKKLLPLDAGKLRKIAVIGPYSDKIVQDWYSGTPPYETTILSGIRNAVKEGTEIIHAEDNRMGQAEKAAAAADVAIVCVGNHPYGTRADWKFSPVPSDGREAVDRKSLMLPDEDLVKLVLKANPNTILVLVSSFPYTINWSQEHVPAIVHITHCSQEQGNGLADVLFGKVNPAGRTVQTWVKDITDLPDIMDYDIRNGRTYMYHQGPVLYPFGYGLSYSDFTYEKIESVKQDKKNIRVTVSVKNTSGRDGEEVVQLYASYPDSKVERPSKQLRAFRRIPIKAGETRKVTLTVPKEELGYWNEGKQMFVVEPGTVKLLIGASSEDIRLEGKIRL,failed
10,MRNLIISAALVAASLFGMSAQAAEPIESGKQYVELTSAVPVAVPGKIEVIELFWYGCPHCYAFEPTINPWVEKLPSDVNFVRIPAMFGGPWDAHGQLFITLDTMGVEHKVHAAVFEAIQKGGKRLTDKNDMADFVATQGVNKDDFLKTFDSFAVKGKIAQYKELAKKYEVTGVPTMIVNGKYRFDLGSAGGPEKTLQVADQLIDKERAAAKAAK,failed
11,MRNSCYTSSYRQPVSLVVEWVLIGGLAMQDKLHEIRVFENFQEELFETGHVIVTTEVVEKSLNYFGNAHGGYLFTLCDQVAGLVALSTGDYAVTLQSNINYLKAGHLSDQLKIEGLCVHNGKTTKLVEVLITNQEEKILTRATFTMYVTGSISE,failed
12,MRPAAARVLLGAFAFAVVADLASQALGSDTGHLLAKPLLMPLLAAYAAVRGGPRLLVVALLLGWAGDVLLLSDADPAFLAGMSSFAAGHVCYLVLFARHGRTRARGALLAGGYGLVLVTTVALLWPGLPAGLRVPVVGYSLLLTAMAYGATRLGPVAGLGGALFLLSDTLIATGVADWPQLPRPDFWIMLTYAAGQYLLVRGVTDTLGAPTAPAAAYGEVRSTTP,failed
